The values that follow come from patent US20240277844A1.

The test addresses anti-CD3 idiotype ScFv (CAR6) fused to the 28z-CAR-membrane-bound IL-15 construct, on cord blood-derived NK cells. The experiment in a line: cell-based or functional assay.

Consider REGN1979 (bispecific antibody), for which the Max Activity, CCL5 release (pg/ml), CBNK/CAR6 cells + Ramos/HiBiT was determined as 6.9 pg/mL; the Max Activity, Cytotoxicity (%), CBNK/CAR6 cells + Ramos/HiBiT was found to be 25.5%; the Max Activity, FasL release (pg/ml), CBNK/CAR6 cells + Ramos/HiBiT was 16.4 pg/mL; the Max Activity, Granzyme A release (pg/ml), CBNK/CAR6 cells + Ramos/HiBiT came out at 643 pg/mL. For the same substance, the Max Activity, Granzyme B release (pg/ml), CBNK/CAR6 cells + Ramos/HiBiT is 239 pg/mL; the Max Activity, IFNγ release (pg/ml), CBNK/CAR6 cells + Ramos/HiBiT worked out at 45.6 pg/mL; the Max Activity, TNFα release (pg/ml), CBNK/CAR6 cells + Ramos/HiBiT stood at 11.9 pg/mL.
